Molecular target: T1, receptor-binding domain (RBD) of the SARS-CoV-2 spike (S) protein (SARS-CoV-2, UniProt P0DTC2)
T1 construct: not shown: His6, C-terminal, kept
Assay: BLI
Settings: both partners purified

B1: CC12.1 Fab (Fab, V domains shown)
VH: EVQLVESGGGLIQPGGSLRLSCAASGLTVSSNYMSWVRQAPGKGLEWVSVIYSGGSTFYADSVKGRFTISRDNSKNTLYLQMNSLRAEDTAVYYCARDLDVYGLDVWGQGTTVTVSS
VL: DIVMTQSPSFLSASVGDRVTITCRASQGISSYLAWYQQKPGKAPKLLIYAASTLQSGVPSRFSGSGSGTEFTLTISSLQPEDFATYYCQQLNSYPPKFTFGPGTKVEIK
notes: also called Fab CC12.1
- Kd: 17 nM

Source: publication doi:10.1101/2020.06.08.141267 (bioRxiv, 2020)
